Values of other authors as cited in article PMC7662862.

Assays:
[1] = molecular target: Merlin N-terminal part (FERM) (Homo sapiens) (UniProt P35240); test: SPR
CRB3 (Homo sapiens) = CRB3 (Homo sapiens) (UniProt Q9BUF7); test: ITC
Chain of UniProt Q9BUF7 (Q9BUF7 27-120): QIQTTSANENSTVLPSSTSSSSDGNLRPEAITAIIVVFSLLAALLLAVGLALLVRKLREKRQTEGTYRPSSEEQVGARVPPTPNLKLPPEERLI

Chain of UniProt P35240 (P35240 22-311): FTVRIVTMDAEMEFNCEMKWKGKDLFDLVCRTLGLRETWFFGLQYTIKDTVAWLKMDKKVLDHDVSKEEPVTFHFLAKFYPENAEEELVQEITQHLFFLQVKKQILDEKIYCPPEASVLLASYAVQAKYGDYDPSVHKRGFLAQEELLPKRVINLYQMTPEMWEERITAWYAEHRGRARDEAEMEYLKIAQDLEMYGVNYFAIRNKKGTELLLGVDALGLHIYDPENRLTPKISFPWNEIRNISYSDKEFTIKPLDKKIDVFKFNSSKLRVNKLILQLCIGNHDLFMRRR

| Kd [1] [µM] | Kd (CRB3 (Homo sapiens)) [µM] | Substance |
| --- | --- | --- |
| 0.0037 |  | MPP1 (from UniProt Q00013) |
|  | 0.07 | MPP5 PDZ-SH3-GUK (from UniProt Q8N3R9) |
